The text below walks through data of article PMC10508983, “Nucleotide-free structures of KIF20A illuminate atypical mechanochemistry in this kinesin-6” (Open Biology, 2023).

B1: KIF20A 25–665 (domain or fragment, mouse, UniProt P97329 25-665, looked up)
chain: ESTAADLRSVVRKDLLSDCSVISASLEDKQALLEDTSEKVKVYLRIRPFLTSELDRQEDQGCVCIENTETLVLQAPKDSFALKSNERGVGQATHKFTFSQIFGPEVGQVAFFNLTMKEMVKDVLKGQNWLIYTYGVTNSGKTYTIQGTSKDAGILPQSLALIFNSLQGQLHPTPDLKPLLSNEVIWLDSKQIRQEEMKKLSLLIGGLQEEELSTSVKKRVHTESRIGASNSFDSGVAGLSSTSQFTSSSQLDETSQLWAQPDTVPVSVPADIRFSVWISFFEIYNELLYDLLEPPSHQHKRQTLRLCEDQNGNPYVKDLNWIHVRDVEEAWKLLKVGRKNQSFASTHMNQQSSRSHSIFSIRILHLQGEGDIVPKISELSLCDLAGSERCKHQKSGERLKEAGNINTSLHTLGRCIAALRQNQQNRSKQNLIPFRDSKLTRVFQGFFTGRGRSCMIVNVNPCASTYDETLHAAKFSALASQLVHAPPVHLGIPSLHSFIKKHSPQVGPGLEKEDKADSDLEDSPEDEADVSVYGKEELLQVVEAMKALLLKERQEKLQLEIQLREEICNEMVEQMQQREQWCSERLDNQKELMEELYEEKLKILKESLTTFYQEQIQERDEKIEELETLLQEAKQQPAAQQ
notes: source: E. coli NiCO21 (DE3), purified (chitin resin, HisTrap HP, size-exclusion chromatography)
B2: KIF20A 1–665 (His-tagged dimeric motor construct) (domain or fragment, mouse, UniProt P97329 1-665, looked up)
chain: MSHRILSPPAGLLSDEDVVDSPILESTAADLRSVVRKDLLSDCSVISASLEDKQALLEDTSEKVKVYLRIRPFLTSELDRQEDQGCVCIENTETLVLQAPKDSFALKSNERGVGQATHKFTFSQIFGPEVGQVAFFNLTMKEMVKDVLKGQNWLIYTYGVTNSGKTYTIQGTSKDAGILPQSLALIFNSLQGQLHPTPDLKPLLSNEVIWLDSKQIRQEEMKKLSLLIGGLQEEELSTSVKKRVHTESRIGASNSFDSGVAGLSSTSQFTSSSQLDETSQLWAQPDTVPVSVPADIRFSVWISFFEIYNELLYDLLEPPSHQHKRQTLRLCEDQNGNPYVKDLNWIHVRDVEEAWKLLKVGRKNQSFASTHMNQQSSRSHSIFSIRILHLQGEGDIVPKISELSLCDLAGSERCKHQKSGERLKEAGNINTSLHTLGRCIAALRQNQQNRSKQNLIPFRDSKLTRVFQGFFTGRGRSCMIVNVNPCASTYDETLHAAKFSALASQLVHAPPVHLGIPSLHSFIKKHSPQVGPGLEKEDKADSDLEDSPEDEADVSVYGKEELLQVVEAMKALLLKERQEKLQLEIQLREEICNEMVEQMQQREQWCSERLDNQKELMEELYEEKLKILKESLTTFYQEQIQERDEKIEELETLLQEAKQQPAAQQ
notes: source: E. coli NiCO21 (DE3), purified (chitin resin, HisTrap HP, size-exclusion chromatography); not shown: His6, C-terminal, kept
B3: KIF20A 55–665 (domain or fragment, mouse, UniProt P97329 55-665, looked up)
chain: ALLEDTSEKVKVYLRIRPFLTSELDRQEDQGCVCIENTETLVLQAPKDSFALKSNERGVGQATHKFTFSQIFGPEVGQVAFFNLTMKEMVKDVLKGQNWLIYTYGVTNSGKTYTIQGTSKDAGILPQSLALIFNSLQGQLHPTPDLKPLLSNEVIWLDSKQIRQEEMKKLSLLIGGLQEEELSTSVKKRVHTESRIGASNSFDSGVAGLSSTSQFTSSSQLDETSQLWAQPDTVPVSVPADIRFSVWISFFEIYNELLYDLLEPPSHQHKRQTLRLCEDQNGNPYVKDLNWIHVRDVEEAWKLLKVGRKNQSFASTHMNQQSSRSHSIFSIRILHLQGEGDIVPKISELSLCDLAGSERCKHQKSGERLKEAGNINTSLHTLGRCIAALRQNQQNRSKQNLIPFRDSKLTRVFQGFFTGRGRSCMIVNVNPCASTYDETLHAAKFSALASQLVHAPPVHLGIPSLHSFIKKHSPQVGPGLEKEDKADSDLEDSPEDEADVSVYGKEELLQVVEAMKALLLKERQEKLQLEIQLREEICNEMVEQMQQREQWCSERLDNQKELMEELYEEKLKILKESLTTFYQEQIQERDEKIEELETLLQEAKQQPAAQQ
notes: as for B1

The series deals with the molecule itself. The experiment in a line: SEC-MALS; 5 mg ml^-1 of each protein injected into a Superdex 200 10/30 Increase column; MALS and refractive index.
As to B1, the “stoichiometry N” value is 2.

For the protein B2, the “stoichiometry N” value was 2.

For the protein B3, the “stoichiometry N” value came out at 2.
